According to PMC9482650, “Quantitative fragmentomics allow affinity mapping of interactomes” (Nature Communications, 2022):
Substitutions are numbered along the chain they refer to.

T1: APBA2_1, Q99767
T1 sequence (Q99767 563-664, limits assumed, looked up): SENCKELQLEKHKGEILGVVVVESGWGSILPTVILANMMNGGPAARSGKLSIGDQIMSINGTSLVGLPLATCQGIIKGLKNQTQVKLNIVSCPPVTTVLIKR

T2: DLG3_1, Q92796
T2 sequence (Q92796 125-227, limits assumed, looked up): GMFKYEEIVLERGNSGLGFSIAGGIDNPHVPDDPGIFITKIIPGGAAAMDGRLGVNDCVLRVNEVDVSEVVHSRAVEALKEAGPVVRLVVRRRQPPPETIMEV

T3: DLG3_2, Q92796
T3 sequence (Q92796 221-321, limits assumed, looked up): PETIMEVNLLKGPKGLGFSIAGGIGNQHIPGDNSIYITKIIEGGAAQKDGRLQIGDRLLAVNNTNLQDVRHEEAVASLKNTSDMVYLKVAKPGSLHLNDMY

T4: DVL3, Q92997
T4 sequence (Q92997 244-331, limits assumed, looked up): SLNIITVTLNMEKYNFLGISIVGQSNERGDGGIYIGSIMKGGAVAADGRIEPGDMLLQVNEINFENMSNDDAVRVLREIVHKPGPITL

T5: FRMPD1, Q5SYB0
T5 sequence (Q5SYB0 52-145, limits assumed, looked up): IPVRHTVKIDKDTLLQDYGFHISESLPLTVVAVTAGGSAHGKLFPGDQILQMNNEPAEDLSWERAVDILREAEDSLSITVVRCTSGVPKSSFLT

T6: GRIP1_2, Q9Y3R0
T6 sequence (Q9Y3R0 145-248, limits assumed, looked up): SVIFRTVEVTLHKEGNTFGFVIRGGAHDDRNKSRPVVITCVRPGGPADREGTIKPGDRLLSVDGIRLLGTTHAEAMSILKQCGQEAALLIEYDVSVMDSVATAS

T7: LIN7A, O14910
T7 sequence (O14910 103-200, limits assumed, looked up): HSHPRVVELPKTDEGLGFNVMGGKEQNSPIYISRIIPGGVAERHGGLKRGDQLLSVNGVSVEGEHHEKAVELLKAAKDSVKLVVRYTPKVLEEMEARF

T8: LIN7B, Q9HAP6
T8 sequence (Q9HAP6 88-185, limits assumed, looked up): T7 sequence (O14910 103-200, limits assumed, looked up) with S2A, V20I, I35V, E42D, H65Q, K77Q, D78G, K89R

T9: MPP6, Q9NZW5
T9 sequence (Q9NZW5 125-219, limits assumed, looked up): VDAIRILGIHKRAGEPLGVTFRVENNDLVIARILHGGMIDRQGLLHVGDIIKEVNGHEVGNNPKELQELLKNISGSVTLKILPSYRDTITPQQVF

T10: PCLO, Q9Y6V0
T10 sequence (Q9Y6V0 4491-4600, limits assumed, looked up): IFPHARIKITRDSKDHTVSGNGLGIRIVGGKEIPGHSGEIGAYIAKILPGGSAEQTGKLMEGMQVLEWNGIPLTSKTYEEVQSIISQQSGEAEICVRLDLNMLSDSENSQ

T11: PDZRN3_1, Q9UPQ7
T11 sequence (Q9UPQ7 244-349, limits assumed, looked up): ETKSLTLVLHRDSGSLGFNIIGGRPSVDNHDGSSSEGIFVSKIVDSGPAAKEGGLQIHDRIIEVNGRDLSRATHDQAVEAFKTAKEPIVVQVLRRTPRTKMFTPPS

T12: SNTG1, Q9NSN8
T12 sequence (Q9NSN8 52-150, limits assumed, looked up): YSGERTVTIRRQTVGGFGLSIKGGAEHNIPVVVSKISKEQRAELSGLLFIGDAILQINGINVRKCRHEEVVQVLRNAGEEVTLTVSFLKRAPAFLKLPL


target: T1, APBA2_1, Q99767; assay: holdup assay; design: key: below the threshold = too weak to quantify, mostly under pKd 3.1 to 4; conditions: plain residues with an end cap or a label only (N-terminal biotin on a linker: ado-ado)

Row | Binder | pKd
1 | PTPDLPQTRV [KLHDC7A, Q5VTJ3] | below the threshold

target: ARHGEF12, Q9NZN5-2; assay: holdup assay; design: key: below the threshold = too weak to quantify, mostly under pKd 3.1 to 4; conditions: plain residues with an end cap or a label only (N-terminal biotin on a linker: ado-ado)
Sequence (Q9NZN5 other isoform, or with tags, fused parts or gaps): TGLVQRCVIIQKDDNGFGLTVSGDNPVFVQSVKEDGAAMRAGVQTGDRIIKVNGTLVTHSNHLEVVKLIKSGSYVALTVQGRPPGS

Row | Binder | pKd
2 | PTPDLPQTRV [KLHDC7A, Q5VTJ3] | 4.13

target: T2, DLG3_1, Q92796; assay: holdup assay; design: key: below the threshold = too weak to quantify, mostly under pKd 3.1 to 4; conditions: plain residues with an end cap or a label only (N-terminal biotin on a linker: ado-ado)

Row | Binder | pKd
3 | PTPDLPQTRV [KLHDC7A, Q5VTJ3] | below the threshold

target: T3, DLG3_2, Q92796; assay: holdup assay; design: key: below the threshold = too weak to quantify, mostly under pKd 3.1 to 4; conditions: plain residues with an end cap or a label only (N-terminal biotin on a linker: ado-ado)

Row | Binder | pKd
4 | PTPDLPQTRV [KLHDC7A, Q5VTJ3] | 4

target: T4, DVL3, Q92997; assay: holdup assay; design: key: below the threshold = too weak to quantify, mostly under pKd 3.1 to 4; conditions: plain residues with an end cap or a label only (N-terminal biotin on a linker: ado-ado)

Row | Binder | pKd
5 | PTPDLPQTRV [KLHDC7A, Q5VTJ3] | below the threshold

target: T5, FRMPD1, Q5SYB0; assay: holdup assay; design: key: below the threshold = too weak to quantify, mostly under pKd 3.1 to 4; conditions: plain residues with an end cap or a label only (N-terminal biotin on a linker: ado-ado)

Row | Binder | pKd
6 | PTPDLPQTRV [KLHDC7A, Q5VTJ3] | below the threshold

target: FRMPD2_2, Q68DX3; assay: holdup assay; design: key: below the threshold = too weak to quantify, mostly under pKd 3.1 to 4; conditions: plain residues with an end cap or a label only (N-terminal biotin on a linker: ado-ado)
Sequence (Q68DX3 944-1038): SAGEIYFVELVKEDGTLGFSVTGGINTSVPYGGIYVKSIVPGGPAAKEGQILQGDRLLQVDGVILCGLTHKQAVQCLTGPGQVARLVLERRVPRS

Row | Binder | pKd
7 | PTPDLPQTRV [KLHDC7A, Q5VTJ3] | 3.8

target: GORASP2, Q9H8Y8; assay: holdup assay; design: key: below the threshold = too weak to quantify, mostly under pKd 3.1 to 4; conditions: plain residues with an end cap or a label only (N-terminal biotin on a linker: ado-ado)

Row | Binder | pKd
8 | PTPDLPQTRV [KLHDC7A, Q5VTJ3] | below the threshold

target: GRID2IP_1, A4D2P6; assay: holdup assay; design: key: below the threshold = too weak to quantify, mostly under pKd 3.1 to 4; conditions: plain residues with an end cap or a label only (N-terminal biotin on a linker: ado-ado)
Sequence (A4D2P6 1-87): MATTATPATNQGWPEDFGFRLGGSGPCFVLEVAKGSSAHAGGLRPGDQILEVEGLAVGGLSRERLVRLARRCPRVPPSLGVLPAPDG

Row | Binder | pKd
9 | PTPDLPQTRV [KLHDC7A, Q5VTJ3] | below the threshold

target: T6, GRIP1_2, Q9Y3R0; assay: holdup assay; design: key: below the threshold = too weak to quantify, mostly under pKd 3.1 to 4; conditions: plain residues with an end cap or a label only (N-terminal biotin on a linker: ado-ado)

Row | Binder | pKd
10 | PTPDLPQTRV [KLHDC7A, Q5VTJ3] | below the threshold

target: HTRA1, Q92743; assay: holdup assay; design: key: below the threshold = too weak to quantify, mostly under pKd 3.1 to 4; conditions: plain residues with an end cap or a label only (N-terminal biotin on a linker: ado-ado)
Sequence (Q92743 360-477): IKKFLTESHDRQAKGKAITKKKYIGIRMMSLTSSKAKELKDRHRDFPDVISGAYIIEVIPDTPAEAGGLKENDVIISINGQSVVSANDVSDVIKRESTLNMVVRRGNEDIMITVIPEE

Row | Binder | pKd
11 | PTPDLPQTRV [KLHDC7A, Q5VTJ3] | below the threshold

target: HTRA2, O43464; assay: holdup assay; design: key: below the threshold = too weak to quantify, mostly under pKd 3.1 to 4; conditions: plain residues with an end cap or a label only (N-terminal biotin on a linker: ado-ado)
Sequence (O43464 355-458): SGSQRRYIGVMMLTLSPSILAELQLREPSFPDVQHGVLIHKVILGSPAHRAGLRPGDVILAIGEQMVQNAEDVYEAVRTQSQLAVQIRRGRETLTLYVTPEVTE

Row | Binder | pKd
12 | PTPDLPQTRV [KLHDC7A, Q5VTJ3] | below the threshold

target: IL16_4, Q14005; assay: holdup assay; design: key: below the threshold = too weak to quantify, mostly under pKd 3.1 to 4; conditions: plain residues with an end cap or a label only (N-terminal biotin on a linker: ado-ado)
Sequence (Q14005 1229-1329): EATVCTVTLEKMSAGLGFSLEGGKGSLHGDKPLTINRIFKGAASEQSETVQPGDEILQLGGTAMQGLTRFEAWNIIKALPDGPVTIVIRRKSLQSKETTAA

Row | Binder | pKd
13 | PTPDLPQTRV [KLHDC7A, Q5VTJ3] | 3.5

target: Inadl_8, Q8NI35; assay: holdup assay; design: key: below the threshold = too weak to quantify, mostly under pKd 3.1 to 4; conditions: plain residues with an end cap or a label only (N-terminal biotin on a linker: ado-ado)
Sequence (Q8NI35 1425-1530): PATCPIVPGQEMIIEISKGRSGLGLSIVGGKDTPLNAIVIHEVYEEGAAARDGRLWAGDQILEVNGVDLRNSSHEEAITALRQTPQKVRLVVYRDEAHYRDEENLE

Row | Binder | pKd
14 | PTPDLPQTRV [KLHDC7A, Q5VTJ3] | 4.36

target: LAP2, Q96RT1; assay: holdup assay; design: key: below the threshold = too weak to quantify, mostly under pKd 3.1 to 4; conditions: plain residues with an end cap or a label only (N-terminal biotin on a linker: ado-ado)
Sequence (Q96RT1 other isoform, or with tags, fused parts or gaps): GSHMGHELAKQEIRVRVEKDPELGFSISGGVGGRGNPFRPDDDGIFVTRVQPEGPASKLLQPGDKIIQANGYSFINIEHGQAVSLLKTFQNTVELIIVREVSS

Row | Binder | pKd
15 | PTPDLPQTRV [KLHDC7A, Q5VTJ3] | below the threshold

target: T7, LIN7A, O14910; assay: holdup assay; design: key: below the threshold = too weak to quantify, mostly under pKd 3.1 to 4; conditions: plain residues with an end cap or a label only (N-terminal biotin on a linker: ado-ado)

Row | Binder | pKd
16 | PTPDLPQTRV [KLHDC7A, Q5VTJ3] | below the threshold

target: T8, LIN7B, Q9HAP6; assay: holdup assay; design: key: below the threshold = too weak to quantify, mostly under pKd 3.1 to 4; conditions: plain residues with an end cap or a label only (N-terminal biotin on a linker: ado-ado)

Row | Binder | pKd
17 | PTPDLPQTRV [KLHDC7A, Q5VTJ3] | 3.89

target: LNX1_3, Q8TBB1; assay: holdup assay; design: key: below the threshold = too weak to quantify, mostly under pKd 3.1 to 4; conditions: plain residues with an end cap or a label only (N-terminal biotin on a linker: ado-ado)
Sequence (Q8TBB1 500-596): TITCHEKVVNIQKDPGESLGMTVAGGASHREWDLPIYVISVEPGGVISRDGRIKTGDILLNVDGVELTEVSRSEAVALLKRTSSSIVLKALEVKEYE

Row | Binder | pKd
18 | PTPDLPQTRV [KLHDC7A, Q5VTJ3] | below the threshold

target: T9, MPP6, Q9NZW5; assay: holdup assay; design: key: below the threshold = too weak to quantify, mostly under pKd 3.1 to 4; conditions: plain residues with an end cap or a label only (N-terminal biotin on a linker: ado-ado)

Row | Binder | pKd
19 | PTPDLPQTRV [KLHDC7A, Q5VTJ3] | below the threshold

target: NHERF4_1, Q86UT5-2; assay: holdup assay; design: key: below the threshold = too weak to quantify, mostly under pKd 3.1 to 4; conditions: plain residues with an end cap or a label only (N-terminal biotin on a linker: ado-ado)
Sequence (Q86UT5 other isoform, or with tags, fused parts or gaps): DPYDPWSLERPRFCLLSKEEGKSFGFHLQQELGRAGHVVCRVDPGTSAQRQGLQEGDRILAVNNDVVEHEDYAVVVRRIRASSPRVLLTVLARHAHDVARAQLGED

Row | Binder | pKd
20 | PTPDLPQTRV [KLHDC7A, Q5VTJ3] | below the threshold

target: T10, PCLO, Q9Y6V0; assay: holdup assay; design: key: below the threshold = too weak to quantify, mostly under pKd 3.1 to 4; conditions: plain residues with an end cap or a label only (N-terminal biotin on a linker: ado-ado)

Row | Binder | pKd
21 | PTPDLPQTRV [KLHDC7A, Q5VTJ3] | below the threshold

target: PDLIM1, O00151; assay: holdup assay; design: key: below the threshold = too weak to quantify, mostly under pKd 3.1 to 4; conditions: plain residues with an end cap or a label only (N-terminal biotin on a linker: ado-ado)
Sequence (O00151 1-87): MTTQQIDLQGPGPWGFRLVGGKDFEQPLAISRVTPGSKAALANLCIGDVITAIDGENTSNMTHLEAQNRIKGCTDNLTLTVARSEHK

Row | Binder | pKd
22 | PTPDLPQTRV [KLHDC7A, Q5VTJ3] | below the threshold

target: T11, PDZRN3_1, Q9UPQ7; assay: holdup assay; design: key: below the threshold = too weak to quantify, mostly under pKd 3.1 to 4; conditions: plain residues with an end cap or a label only (N-terminal biotin on a linker: ado-ado)

Row | Binder | pKd
23 | PTPDLPQTRV [KLHDC7A, Q5VTJ3] | 3.53

target: SCRIB_3, Q14160; assay: holdup assay; design: key: below the threshold = too weak to quantify, mostly under pKd 3.1 to 4; conditions: plain residues with an end cap or a label only (N-terminal biotin on a linker: ado-ado)
Sequence (Q14160 999-1103): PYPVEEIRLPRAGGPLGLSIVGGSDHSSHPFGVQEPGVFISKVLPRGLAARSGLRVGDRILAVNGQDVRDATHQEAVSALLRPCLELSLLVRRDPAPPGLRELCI

Row | Binder | pKd
24 | PTPDLPQTRV [KLHDC7A, Q5VTJ3] | below the threshold

target: T12, SNTG1, Q9NSN8; assay: holdup assay; design: key: below the threshold = too weak to quantify, mostly under pKd 3.1 to 4; conditions: plain residues with an end cap or a label only (N-terminal biotin on a linker: ado-ado)

Row | Binder | pKd
25 | PTPDLPQTRV [KLHDC7A, Q5VTJ3] | 4.36

target: TJP1_3, Q07157; assay: holdup assay; design: key: below the threshold = too weak to quantify, mostly under pKd 3.1 to 4; conditions: plain residues with an end cap or a label only (N-terminal biotin on a linker: ado-ado)
Sequence (Q07157 416-512): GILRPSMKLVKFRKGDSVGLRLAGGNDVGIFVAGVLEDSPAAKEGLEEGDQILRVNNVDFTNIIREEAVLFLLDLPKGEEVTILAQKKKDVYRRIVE

Row | Binder | pKd
26 | PTPDLPQTRV [KLHDC7A, Q5VTJ3] | below the threshold
